The record followed here is US20250197820A1, “NUCLEIC ACID POLYMERASE AND ITS USE IN PRODUCING NON-DNA NUCLEOTIDE POLYMERS” (UNITED KINGDOM RESEARCH AND INNOVATION, priority 2021, published 2025).

Holding throughout (assay type): biochemical
One assay concerns the target T1, 2M (Thermococcus gorgonarius, UniProt P56689, A485L/D141A/E143A/E664K/F545L/I521L/K592A/T541G/V93Q/Y409G).
T1 construct: made in house; host or cells: E. coli BL21 CodonPlus-RIL
As to the kind of experiment: Steady-state kinetics of single nucleotide incorporation by 2M. As to conditions: single nucleotide incorporation from 2′OMe-RNA primer; for improvement of KM value compared to ATP: 50° C. The protocol:
Steady-state kinetic parameters for NTP incorporation by 2M were determined by performing initial velocity measurements of single incorporations of either ATP, 2′OMe-ATP, or MOE-ATP. To generate the 2′OMe-RNA/DNA substrate, a 20-mer 2′OMe-RNA primer FD was 5′ 6-carboxyfluorescein end-labeled and annealed to the 52-mer DNA template BFL770 (Supplementary Table 1) at a 1:1.2 molar ratio. The reactions were performed at 50° C. in a mixture containing 1× Thermopol buffer, 6 mM Mg^2+, 100 nM 2′OMe-RNA/DNA substrate, and at NTP concentrations ranging from 0.5-250 μM. Enzyme concentrations and reaction times were selected to maintain initial velocity conditions. The 25 μL reactions were stopped by addition of a quenching solution containing 100 mM EDTA, 80% deionized formamide, 0.25 mg/ml bromophenol blue and 0.25 mg/ml xylene cyanol. Moreover, less than 20% of the primers were extended as required for steady-state conditions.
Product and substrate were separated on a 22% denaturing (8 M urea) polyacrylamide gel. The resulting bands were quantified using a Cytiva Typhoon RGB imager in fluorescence mode. Steady-state kinetic parameters (KM, kcat) were determined by fitting the data to the Michaelis-Menten equation. The data are the means and standard error from three independent experiments.

Another assay relates to template TempNpure. Kind of assay: Primer extension on defined-sequence template (denaturing PAGE). The protocol:
(§1) Analytical primer extension reactions were carried out in 1× Thermopol buffer (NEB) supplemented with MgSO4 (4 mM). Primer (100 nM) was extended on a template (200 nM) with appropriate nucleoside triphosphates (125-250 μM each) by purified polymerase (10-100 μg/mL) in a 10-μL reaction volume. Reactions were carried out at 65° C. Primer extension products were analysed via urea-PAGE. All extensions with MOE-NTPs on defined-sequence template TempNpure required post-synthesis template capture with a ten-fold excess of antisense template, Turbo DNase (Invitrogen) treatment, subsequent Proteinase K (NEB) treatment, and loading on the urea-PAGE gel with a ten-fold excess of antisense template. Primer extensions with MOE-NTPs on template sfGFP required polymerase concentrations of 500 μg/mL.

Assay [1] relates to random N40 template Tag3.3-N40-Test2. As to the kind of experiment: Primer extension on random N40 template (denaturing PAGE, densitometry). The protocol: as §1
For a further assay, the system named is template sfGFP. As to the kind of experiment: Long-range synthesis of a GFP transcript. Particulars: 2′OMe-RNA primer Synth-out1mm. The protocol:
as §1

[2] abbreviates: FIG. 1g, RNA/2′OMe-RNA primer A-Test2, full length +79 nt.
The mark [3] stands for this setting: FIG. 3e, 2′OMe-RNA primer A-Test2, full length +79 nt.

Consider `COCCOC1C(O)C(COP(=O)(O)OP(=O)(O)OP(=O)(O)O)OC1n1cnc2c(N)ncnc21` (stereo not shown) [MOE-ATP], for which, at 2M, the “Vmax/kcat values for incorporation” value is recorded as “essentially identical” and the “improvement of KM value compared to ATP” value was “approximately 5 fold”.
In the case of `CO[C@@H]1[C@H](O)[C@@H](COP(=O)(O)OP(=O)(O)OP(=O)(O)O)O[C@H]1n1cnc2c(N)ncnc21` [2′OMe-ATP], on 2M, the “Vmax/kcat values for incorporation” value was “essentially identical” and the “improvement of KM value compared to ATP” value is “approximately 5 fold”.

B1: TGLLK: Tgo: V93Q, D141A, E143A, Y409G, A485L, I521L, F545L, E664K; previously described parent polymerase (protein, UniProt P56689 1-773, looked up, variant V93Q D141A E143A Y409G A485L I521L F545L E664K)
DNA polymerase: MILDTDYITEDGKPVIRIFKKENGEFKIDYDRNFEPYIYALLKDDSAIEDVKKITAERHGTTVRVVRAEKVKKKFLGRPIEVWKLYFTHPQDQPAIRDKIKEHPAVVDIYEYDIPFAKRYLIDKGLIPMEGDEELKMLAFAIATLYHEGEEFAEGPILMISYADEEGARVITWKNIDLPYVDVVSTEKEMIKRFLKVVKEKDPDVLITYNGDNFDFAYLKKRSEKLGVKFILGREGSEPKIQRMGDRFAVEVKGRIHFDLYPVIRRTINLPTYTLEAVYEAIFGQPKEKVYAEEIAQAWETGEGLERVARYSMEDAKVTYELGKEFFPMEAQLSRLVGQSLWDVSRSSTGNLVEWFLLRKAYERNELAPNKPDERELARRRESYAGGYVKEPERGLWENIVYLDFRSLGPSIIITHNVSPDTLNREGCEEYDVAPQVGHKFCKDFPGFIPSLLGDLLEERQKVKKKMKATIDPIEKKLLDYRQRLIKILANSFYGYYGYAKARWYCKECAESVTAWGRQYLETTIREIEEKFGFKVLYADTDGFLATIPGADAETVKKKAKEFLDYINAKLPGLLELEYEGFYKRGFFVTKKKYAVIDEEDKITTRGLEIVRRDWSEIAKETQARVLEAILKHGDVEEAVRIVKEVTEKLSKYEVPPEKLVIYKQITRDLKDYKATGPHVAVAKRLAARGIKIRPGTVISYIVLKGSGRIGDRAIPFDEFDPAKHKYDAEYYIENQVLPAVERILRAFGYRKEDLRYQKTRQVGLGAWLKPKT
As to B1, the “2′OMe-RNA synthesis activity (in words)” value in the assay with template TempNpure (denaturing PAGE) is recorded as “comparatively inefficient”. The “densitometry of N40 synthesis yield, 2′OMe-RNA” value (from here on “densitometry … 2′OMe-RNA”) in assay [1] (setting [2]) is 0%. In assay [1] (setting [3]), the “densitometry … 2′OMe-RNA” value is on record as 1% and the “densitometry of N40 synthesis yield, MOE-RNA” value is reported as 0%.

B2: 2M: Tgo polymerase with V93Q, D141A, E143A, Y409G, A485L, I521L, T541G, F545L, K592A, E664K (SEQ ID NO: 3) (protein)
chain: MILDTDYITEDGKPVIRIFKKENGEFKIDYDRNFEPYIYALLKDDSAIEDVKKITAERHGTTVRVVRAEKVKKKFLGRPIEVWKLYFTHPQDQPAIRDKIKEHPAVVDIYEYDIPFAKRYLIDKGLIPMEGDEELKMLAFAIATLYHEGEEFAEGPILMISYADEEGARVITWKNIDLPYVDVVSTEKEMIKRFLKVVKEKDPDVLITYNGDNFDFAYLKKRSEKLGVKFILGREGSEPKIQRMGDRFAVEVKGRIHFDLYPVIRRTINLPTYTLEAVYEAIFGQPKEKVYAEEIAQAWETGEGLERVARYSMEDAKVTYELGKEFFPMEAQLSRLVGQSLWDVSRSSTGNLVEWFLLRKAYERNELAPNKPDERELARRRESYAGGYVKEPERGLWENIVYLDFRSLGPSIIITHNVSPDTLNREGCEEYDVAPQVGHKFCKDFPGFIPSLLGDLLEERQKVKKKMKATIDPIEKKLLDYRQRLIKILANSFYGYYGYAKARWYCKECAESVTAWGRQYLETTIREIEEKFGFKVLYADGDGFLATIPGADAETVKKKAKEFLDYINAKLPGLLELEYEGFYKRGFFVTKAKYAVIDEEDKITTRGLEIVRRDWSEIAKETQARVLEAILKHGDVEEAVRIVKEVTEKLSKYEVPPEKLVIYKQITRDLKDYKATGPHVAVAKRLAARGIKIRPGTVISYIVLKGSGRIGDRAIPFDEFDPAKHKYDAEYYIENQVLPAVERILRAFGYRKEDLRYQKTRQVGLGAWLKPKT
Regarding B2, in the assay with template TempNpure (2′OMe-RNA primer FD), the “time to reach full length synthesis (+72 nt), 2′OMe-RNA” value was < 5 min and the “time to reach full length synthesis (+72 nt), MOE-RNA” value was < 20 min. Besides, in the assay with template TempNpure (denaturing PAGE), the “2′OMe-RNA synthesis activity (in words)” value was “striking increase in 2′OMe-RNA synthesis activity” and the “MOE-RNA synthesis (in words)” value is reported as “able to efficiently synthesize MOE-RNA”. Also, in the assay on template sfGFP, the “long-range 2′OMe-RNA synthesis length” value was 750 nt and the “long-range MOE-RNA synthesis length” value turned out to be 750 nt. For the same molecule, in assay [1] (2′OMe-RNA primer FD-Test2), the “time to reach full length synthesis (+79 nt), 2′OMe-RNA” value is < 10 min; the “time to reach full length synthesis (+79 nt), DNA” value is recorded as < 1 min; the “time to reach full length synthesis (+79 nt), MOE-RNA” value is listed as < 30 min. The “densitometry … 2′OMe-RNA” value in assay [1] (setting [2]) is given as 90%. Also, in assay [1] (setting [3]), the “densitometry … 2′OMe-RNA” value came out at 84% and the “densitometry of N40 synthesis yield, MOE-RNA” value came to 65%.

B3: 2M+D614N: 2M polymerase bearing the DGLNK mutation D614N (SEQ ID NO: 5) (protein)
chain: MILDTDYITEDGKPVIRIFKKENGEFKIDYDRNFEPYIYALLKDDSAIEDVKKITAERHGTTVRVVRAEKVKKKFLGRPIEVWKLYFTHPQDQPAIRDKIKEHPAVVDIYEYDIPFAKRYLIDKGLIPMEGDEELKMLAFAIATLYHEGEEFAEGPILMISYADEEGARVITWKNIDLPYVDVVSTEKEMIKRFLKVVKEKDPDVLITYNGDNFDFAYLKKRSEKLGVKFILGREGSEPKIQRMGDRFAVEVKGRIHFDLYPVIRRTINLPTYTLEAVYEAIFGQPKEKVYAEEIAQAWETGEGLERVARYSMEDAKVTYELGKEFFPMEAQLSRLVGQSLWDVSRSSTGNLVEWFLLRKAYERNELAPNKPDERELARRRESYAGGYVKEPERGLWENIVYLDFRSLGPSIIITHNVSPDTLNREGCEEYDVAPQVGHKFCKDFPGFIPSLLGDLLEERQKVKKKMKATIDPIEKKLLDYRQRLIKILANSFYGYYGYAKARWYCKECAESVTAWGRQYLETTIREIEEKFGFKVLYADGDGFLATIPGADAETVKKKAKEFLDYINAKLPGLLELEYEGFYKRGFFVTKAKYAVIDEEDKITTRGLEIVRRNWSEIAKETQARVLEAILKHGDVEEAVRIVKEVTEKLSKYEVPPEKLVIYKQITRDLKDYKATGPHVAVAKRLAARGIKIRPGTVISYIVLKGSGRIGDRAIPFDEFDPAKHKYDAEYYIENQVLPAVERILRAFGYRKEDLRYQKTRQVGLGAWLKPKT
For B3, in the assay on template TempNpure (denaturing PAGE), the “2′OMe-RNA synthesis activity (in words)” value is given as “small enhancement”.

B4: 3M: Tgo polymerase as 2M but with E664R (SEQ ID NO: 4) (protein)
chain: MILDTDYITEDGKPVIRIFKKENGEFKIDYDRNFEPYIYALLKDDSAIEDVKKITAERHGTTVRVVRAEKVKKKFLGRPIEVWKLYFTHPQDQPAIRDKIKEHPAVVDIYEYDIPFAKRYLIDKGLIPMEGDEELKMLAFAIATLYHEGEEFAEGPILMISYADEEGARVITWKNIDLPYVDVVSTEKEMIKRFLKVVKEKDPDVLITYNGDNFDFAYLKKRSEKLGVKFILGREGSEPKIQRMGDRFAVEVKGRIHFDLYPVIRRTINLPTYTLEAVYEAIFGQPKEKVYAEEIAQAWETGEGLERVARYSMEDAKVTYELGKEFFPMEAQLSRLVGQSLWDVSRSSTGNLVEWFLLRKAYERNELAPNKPDERELARRRESYAGGYVKEPERGLWENIVYLDFRSLGPSIIITHNVSPDTLNREGCEEYDVAPQVGHKFCKDFPGFIPSLLGDLLEERQKVKKKMKATIDPIEKKLLDYRQRLIKILANSFYGYYGYAKARWYCKECAESVTAWGRQYLETTIREIEEKFGFKVLYADGDGFLATIPGADAETVKKKAKEFLDYINAKLPGLLELEYEGFYKRGFFVTKAKYAVIDEEDKITTRGLEIVRRDWSEIAKETQARVLEAILKHGDVEEAVRIVKEVTEKLSKYEVPPEKLVIYRQITRDLKDYKATGPHVAVAKRLAARGIKIRPGTVISYIVLKGSGRIGDRAIPFDEFDPAKHKYDAEYYIENQVLPAVERILRAFGYRKEDLRYQKTRQVGLGAWLKPKT
As to B4, in the assay on template TempNpure (denaturing PAGE), the “2′OMe-RNA synthesis activity (in words)” value is “virtually identical synthesis activity”.
